Reference: publication PMC3477590 (Molecular cell, 2012)

Target: minimally biotinylated GLMN (wild-type) (human, UniProt Q92990 1-594, minimally biotinylated)
Experiment: SPR

minimally biotinylated GLMN (wild-type), sequence (Q92990 whole entry): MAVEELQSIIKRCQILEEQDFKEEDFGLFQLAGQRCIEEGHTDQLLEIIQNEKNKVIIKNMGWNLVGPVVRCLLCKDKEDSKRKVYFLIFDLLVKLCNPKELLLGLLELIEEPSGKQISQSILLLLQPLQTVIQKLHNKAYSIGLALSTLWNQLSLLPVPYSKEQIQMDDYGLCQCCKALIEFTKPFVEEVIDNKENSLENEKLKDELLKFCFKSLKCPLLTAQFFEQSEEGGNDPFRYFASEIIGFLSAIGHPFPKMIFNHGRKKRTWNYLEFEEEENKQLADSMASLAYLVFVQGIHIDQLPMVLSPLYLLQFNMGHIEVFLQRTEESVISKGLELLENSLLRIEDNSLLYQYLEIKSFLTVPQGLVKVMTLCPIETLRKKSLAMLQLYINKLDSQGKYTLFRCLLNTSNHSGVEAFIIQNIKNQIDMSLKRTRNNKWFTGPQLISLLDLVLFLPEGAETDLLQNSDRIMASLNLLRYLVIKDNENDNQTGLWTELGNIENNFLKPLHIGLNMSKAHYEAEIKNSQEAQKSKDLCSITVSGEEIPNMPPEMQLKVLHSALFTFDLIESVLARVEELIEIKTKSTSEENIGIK

Kd: 38.6 nM
B1: isolated RBX1 RING domain (domain or fragment)
chain: not shown
